{"source": "paper PMC7108717", "about": "“Dynamics in the murine norovirus capsid revealed by high-resolution cryo-EM” (PLoS Biology, 2020)", "proteins": {"B1": {"name": "murine norovirus (MNV-1 strain CW1P3) major structural protein VP1, wild type (natural protein)", "chain": "MRMSDGAAPKANGSEASGQDLVPAAVEQAVPIQPVAGAALAAPAAGQINQIDPWIFQNFVQCPLGEFSISPRNTPGEILFDLALGPGLNPYLAHLSAMYTGWVGNMEVQLVLAGNAFTAGKVVVALVPPYFPKGSLTTAQITCFPHVMCDVRTLEPIQLPLLDVRRVLWHATQDQEESMRLVCMLYTPLRTNSPGDESFVVSGRLLSKPAADFNFVYLTPPIERTIYRMVDLPVIQPRLCTHARWPAPVYGLLVDPSLPSNPQWQNGRVHVDGTLLGTTPISGSWVSCFAAEAAYKFQSGTGEVATFTLIEQDGSAYVPGDRAAPLGYPDFSGQLEIEVQTETTKTGDKLKVTTFEMILGPTTNADQAPYQGRVFASVTAAASLDLVDGRVRAVPRSIYGFQDTIPEYNDGLLVPLAPPIGPFLPGEVLLRFRTYMRQIDTADAAAEAIDCALPQEFVSWFASNAFTVQSEALLLRYRNTLTGQLLFECKLYNEGYIALSYSGSGPLTFPTDGIFEVVSWVPRLYQLASVGSLATGRMLKQ", "notes": "major capsid protein VP1 (ORF2) of murine norovirus MNV-1 strain CW1P3, as it stands in infectious virions; N-terminal region, S domain, P domain (P1, P2); modelled from D20 (A-type), S17 (B-type), V30 (C-type); Capsid: 90 dimers (AB and CC) in T = 3 symmetry; also called wtMNV VP1; MNV VP1; copies: 180"}}, "biological_target": "the molecule itself", "test": "cryo-EM structure; purified virions in EM buffer (10 mM HEPES pH 7.6, 200 mM NaCl, 5 mM MgCl2, 1 mM KCl, 1 mM CaCl2), icosahedral reconstruction and focussed classification of P domain dimers"}
{"protein": "B1", "values": [{"measurement": "stoichiometry N", "value": 180, "unit": "VP1 chains in the capsid"}]}
